# From publication PMC12737151, “Systematic Development and Characterization of Enzyme-Free, Borax-Crosslinked Microneedles for Glucose-Responsive Insulin Delivery and In Vivo Glycemic Mitigation” (Pharmaceutics, 2025)
# Columns and labels:
# [1] = parameters: species or system C57BL/6J mice; details: mouse, in vivo; SD
# Method: Pharmacokinetics. Serial blood samples were collected following sI-MN application or SC insulin dosing. Plasma insulin concentrations were quantified by ELISA (4-PL; appropriate plasma dilution; internal QCs and spike-recovery within 80–120%). Noncompartmental analysis (NCA) yielded Cmax, tmax, and AUC over the reported interval, and terminal half-life (t1/2). […] AUCs were calculated by the linear-up/linear-down trapezoidal rule.
# patches (related to Section 2.2.3).
# Mechanical Robustness — Single-Needle Fracture
# compression at constant speed. Fracture point was identified from force–
# displacement traces. Per-array mean ± SD and overall CV were computed.
# ICC(1,1) (related to Section 2.2.4).
# ELISA Validation — Patch Extract Matrices
# ELISA sample diluent to fall within the validated range. For in-vitro release,
# corner wells avoided to minimize edge effects. Carryover was checked by
# placing an LLOQ well immediately after the ULOQ well. Matrix effect and
# 120% recovery and CV ≤15% (≤20% at LLOQ). Content (IU per patch) was
# human insulin (≈28.8 IU·mg⁻¹). All ELISA-derived masses were converted
# accordingly before IU normalizatio. Uniformity was summarized as mean ±
# ELISA Validation — Mouse Plasma (PK)
# inverted, and kept on wet ice.
# specified visual criterion) were excluded. Samples were diluted 1:5–1:20 in kit
# Selectivity against endogenous
# mouse insulin was ensured per manufacturer documentation (cross-reactivity
# <0.1%) and confirmed by blank plasma < LLOQ. Stability was verified for
# 14 days (≥90%). PK outputs per animal included observed Cmax, Tmax, AUC₀–
# regression), and t½ = ln2/λz.
# ICP–MS Validation — Boron Leaching
# Ventures (Christiansburg, VA, USA). External calibration used 0–100 µg·L⁻¹
# standards (matrix-matched), with R² ≥ 0.99 required. A rinse of 2% HNO₃ for
# daily for five consecutive days.
# dose and prior to glycemic assessments as applicable. Fasting plasma glucose
# were excluded per pre-specified rules. All animal procedures complied with
# and conformed to ARRIVE guidelines.
# [2] = mouse, in vivo; SD
# STZ-diabetic mice [3] = assay: Baseline efficacy 0–12 h: plasma glucose and plasma insulin; format: in vivo, C57BL/6J mice; details: basal monitoring, mean ± SD, n = 8
# STZ-diabetic mice [4] = system: STZ-diabetic mice; parameters: species or system C57BL/6J mice; details: mouse, in vivo; SD
# STZ-diabetic mice [5] = assay: Intraperitoneal glucose-tolerance test (IPGTT); format: in vivo, C57BL/6J mice; details: 30 min after 1.5 g·kg^−1 glucose i.p., 4 h post-treatment, mean ± SD, n = 8
substance,measurement,setting,value
recombinant human insulin [SC insulin],AUC0–12h,[1],192 ± 11 ng·h/mL
same,Tmax,[1],1.0 ± 0.1 h
same,t½ (terminal half-life),[1],2.64 ± 0.12 h
same,AST,[2],48.2 ± 6.7 U·L⁻¹
same,Creatinine,[2],39.4 ± 2.5 µmol/L
same,Plasma glucose (PGL),"STZ-diabetic mice [3]; 0 h, dose-matched SC vs patch (nominal 0.05–0.20 IU)",344 ± 16 mg/dL
same,Plasma glucose (PGL),"STZ-diabetic mice [3]; 12 h, dose-matched",220 ± 30 mg/dL
same,IVGTT plasma insulin,STZ-diabetic mice [4],5.4 ± 0.4 ng/mL
same,IPGTT peak glycemia (maximal group mean at 30 min),STZ-diabetic mice [5],272 ± 17 mg/dL
